Measured values as given in PMC4287381 (Virology, 2009).

Molecular target: GST-p53 C-terminal domain (residues 300–393) (human, UniProt P04637 300-393)
Assay: pull-down

GST-p53 C-terminal domain (residues 300–393), sequence (P04637 300-393): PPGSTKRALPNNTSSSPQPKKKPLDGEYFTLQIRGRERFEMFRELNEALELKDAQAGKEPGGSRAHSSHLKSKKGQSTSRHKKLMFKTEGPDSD

B1: Full-length EBNA3C, in vitro translated, 35S-labelled (natural protein)
chain: MESFEGQGDSRQSPDNERGDNVQTTGEHDQDPGPGPPSSGASERLVPEESYSRDQQPWGQSRGDENRGWMQRIRRRRRRRAALSGHLLDTEDNVPPWLPPHDITPYTARNIRDAACRAVKQSHLQALSNLILDSGLDTQHILCFVMAARQRLQDIRRGPLVAEGGVGWRHWLLTSPSQSWPMGYRTATLRTLTPVPNRVGADSIMLTATFGCQNAARTLNTFSATVWTPPHAGPREQERYAREAEVRFLRGKWQRRYRRIYDLIELCGSLHHIWQNLLQTEENLLDFVRFMGVMSSCNNPAVNYWFHKTIGNFKPYYPWNAPPNENPYHARRGIKEHVIQNAFRKAQIQGLSMLATGGEPRGDATSETSSDEDTGRQGSDVELESSDDELPYIDPNMEPVQQRPVMFVSRVPAKKPRKLPWPTPKTHPVKRTNVKTSDRSDKAEAQSTPERPGPSEQSSVTVEPAHPTPVEMPMVILHQPPPVPKPVPVKPTPPPSRRRRGACVVYDDDVIEVIDVETTEDSSSVSQPNKPHRKHQDGFQRSGRRQKRAAPPTVSPSDTGPPAVGPPAAGPPAAGPPAAGPPAAGPPAAGPPAAGPRILAPLSAGPPAAGPHIVTPPSARPRIMAPPVVRMFMRERQLPQSTGRKPQCFWEMRAGREITQMQQEPSSHLQSATQPTTPRPSWAPSVCALSVMDAGKAQPIESSHLSSMSPTQPISHEEQPRYEDPDAPLDLSLHPDVAAQPAPQAPYQGYQEPPAPQAPYQGYQEPPPPQAPYQGYQEPPAHGLQSSSYPGYAGPWTPRSQHPCYRHPWAPWSQDPVHGHTQGPWDPRAPHLPPQWDGSAGHGQDQVSQFPHLQSETGPPRLQLSLVPLVSSSAPSWSSPQPRAPIRPIPTRFPPPPMPLQDSMAVGCDSSGTACPSMPFASDYSQGAFTPLDINATTPKRPRVEESSHGPARCSQATAEAQEILSDNSEISVFPKDAKQTDYDASTESELD
modifications: 35S methionine label
fold interaction against the DNA binding domain of p53 (residues 100–300): 1.7 fold
